According to the supplement of paper PMC9732359:
± gives the uncertainty stated by the source.

Test: protein stability index of a GFP-peptide fusion (yeast GPS) (PSI 1-4); higher = more stable; sorted into four equal gates, so the index is relative within each strain
Summary of the method: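 Each library plasmid carries Cherry plus GFP with a tiled 17-residue yeast protein peptide fused downstream, and the pooled library was carried in yeast. Mid-log cultures in leucine-free medium were sorted into four equal gates by GFP/Cherry ratio. Reads from Illumina sequencing of PCR-amplified plasmids from each gate were assigned to strains by barcodes. Per peptide, the protein stability index was computed as the summed products of gate read frequency and gate number.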

Sequence	protein stability index (doa10∆)	protein stability index (pdr5∆)	protein stability index (san1∆)	protein stability index (ubr1∆)
QIFKVAGENAPSIVFID [RPT2]	1.84 ± 0.098	1.2 ± 0.059	1.31 ± 0.13	1.33 ± 0.066
YKCTAAMEKYLLSKSKI [MTW1]	2.21 ± 0.038	2.58 ± 0.056	2.44 ± 0.049	2.69 ± 0.03
TVNGQARDLATMTYEEV [FAS1]	2.96 ± 0.08	3.15 ± 0.056	3.03 ± 0.065	2.95 ± 0.045
ETQEIKENDTVMNTKLL [ESC2]	2.85 ± 0.086	3 ± 0.063	2.88 ± 0.1	3.18 ± 0.055
WEISNPDFLSKYSAITS [NUT1]	1.54 ± 0.045	2.06 ± 0.044	1.51 ± 0.073	1.59 ± 0.041
LPRCSKEEFRLMISPKD [RRI2]	1.77 ± 0.056	1.88 ± 0.063	1.58 ± 0.16	1.67 ± 0.044
AQLDGRIGVLQARMMQQ [NSL1]	2.21 ± 0.055	2.46 ± 0.043	2.46 ± 0.056	2.61 ± 0.048
AKHAVSEGTRAVTKYSS [HTB1]	3 ± 0.08	3.21 ± 0.11	3.41 ± 0.075	3.12 ± 0.09
SSDELKVIEEQLKHTKL [SMC4]	3.27 ± 0.061	3.3 ± 0.077	3.04 ± 0.067	3.25 ± 0.058
DETTVPSYYYYVDPETT [ROX3]	2.99 ± 0.08	3.04 ± 0.072	3.01 ± 0.049	3.25 ± 0.065
LESEIASSSAKLIEKKS [SMC2]	2.69 ± 0.072	3.03 ± 0.058	3.08 ± 0.04	3 ± 0.055
HELITNIGETAGVVQDI [RPB9]	2.82 ± 0.066	2.79 ± 0.054	3.27 ± 0.07	3.22 ± 0.057
SKRPQLGEIPNPMKKHK [SIR4]	2.44 ± 0.075	2.53 ± 0.059	2.23 ± 0.089	2.69 ± 0.079
MDEMDNVIRSLEQEYRL [RMP1]	1.81 ± 0.064	1.21 ± 0.025	1.71 ± 0.15	2.05 ± 0.072
GTSLKVAPVSEIVNMVP [SIR2]	2.24 ± 0.089	2.65 ± 0.089	2.7 ± 0.069	2.37 ± 0.058
SRMRLIRQDVNLGRAVF [PRP8]	2.06 ± 0.085	2.31 ± 0.061	2.04 ± 0.084	2.35 ± 0.054
ADITDGNNTELTKTTVN [YCG1]	3.19 ± 0.078	3.22 ± 0.068	3.33 ± 0.052	3.09 ± 0.053
NNPDMMIQPPQQGQNMS [ROX3]	–	2.92 ± 0.12	3.05 ± 0.12	3.14 ± 0.14
VYVTGGRNLGRIGTIVH [RPS4A]	3.02 ± 0.21	2.8 ± 0.18	3.18 ± 0.084	3.4 ± 0.13
LQHLRSRCHLVTKDTKK [SRP68]	2.93 ± 0.11	2.88 ± 0.11	2.93 ± 0.12	3.12 ± 0.056
ADNNDLQESINHVMYTE [ECM29]	2.66 ± 0.086	3.02 ± 0.096	3.05 ± 0.1	3.02 ± 0.054
ELDKREDMIDQVSKKLS [SMC3]	3.12 ± 0.061	3 ± 0.082	2.93 ± 0.075	2.81 ± 0.096
KSPPQFFYNISSIHWNN [SIN4]	2.15 ± 0.042	1.89 ± 0.039	2.17 ± 0.065	2.11 ± 0.042
KKIVDSKKLNLKIHQSH [YMR129W/POM152]	2.85 ± 0.067	2.7 ± 0.056	2.44 ± 0.17	2.69 ± 0.062
NNMLYPREDKENNRLLF [RPB9]	3.13 ± 0.13	3.43 ± 0.16	2.78 ± 0.1	3.25 ± 0.22

Sequence	protein stability index (doa10∆)	protein stability index (pdr5∆)	protein stability index (san1∆)	protein stability index (ubr1∆)
GFSMNNPYNIVPQGKIV [SMC3]	3.05 ± 0.11	2.93 ± 0.071	3.08 ± 0.085	3.09 ± 0.062
RTMLELITQLDGFDPRG [RPT1]	2.6 ± 0.061	2.81 ± 0.061	2.91 ± 0.066	2.73 ± 0.096
KSSLSLRDHALSLTAFT [ITC1]	1.63 ± 0.036	2.14 ± 0.036	1.64 ± 0.064	2.16 ± 0.036
SDDQQEAVELVIGLDSE [YML103C/NUP188]	2.9 ± 0.17	3.54 ± 0.12	3.39 ± 0.12	3.38 ± 0.045
EIYRISFQLSKIRRAAR [RPS9A]	1.95 ± 0.043	2.15 ± 0.062	2.3 ± 0.048	2.29 ± 0.046
WAEHLSDEVKRRFYKNW [RPL3]	3.31 ± 0.2	2.9 ± 0.25	3.34 ± 0.14	3.37 ± 0.17
SATSKPAFSFGAKPEEK [YJL041W/NSP1]	3.1 ± 0.15	3.31 ± 0.22	3.16 ± 0.11	2.55 ± 0.14
TSSIFQESFNSVQNLDQ [NUT1]	3.16 ± 0.086	2.64 ± 0.057	2.98 ± 0.048	3.14 ± 0.054
SAKNRVVILARAKALGI [RPL32]	1.69 ± 0.05	1.74 ± 0.061	1.76 ± 0.081	2.05 ± 0.042
DQFIRHVLRGVESPDKN [YCG1]	–	3.77 ± 0.2	3.18 ± 0.14	–
YYYNTKIYKLENGERKL [YMR129W/POM152]	3.03 ± 0.05	3.26 ± 0.069	3.1 ± 0.069	3.18 ± 0.04
SLLESGSEILGDLKLQV [RPO21]	3.59 ± 0.27	3.58 ± 0.14	2.53 ± 0.21	3.02 ± 0.18
NEIANSIIQSKQDCVDW [BRR2]	2.61 ± 0.069	2.87 ± 0.071	2.73 ± 0.071	2.88 ± 0.079
AINIMNRSNDALIKFME [FAS2]	3.19 ± 0.15	3.45 ± 0.15	3.26 ± 0.093	3.38 ± 0.15
KLSIAEERDRRRAQQGL [RPS4A]	2.11 ± 0.06	2.19 ± 0.069	2.49 ± 0.095	1.6 ± 0.063
VQESGNIDYQKGLLIWR [GRR1]	3.35 ± 0.091	3.13 ± 0.1	3.37 ± 0.1	2.75 ± 0.079
ADILCPLLESFITFSLD [IRR1]	2.63 ± 0.11	2.32 ± 0.081	2.17 ± 0.071	2.34 ± 0.064
GAIILTKMDGHARGGGA [SRP54]	2.88 ± 0.24	3.13 ± 0.16	2.95 ± 0.13	–
EFVHKYLGEGPRMVRDV [RPT3]	3.39 ± 0.14	3.43 ± 0.084	3.14 ± 0.062	3.17 ± 0.077
TQLDKLRPRKDSKDGTT [SMB1]	2.26 ± 0.28	2.15 ± 0.28	–	1.77 ± 0.2
VTRIINSSEIQSAIRPA [RPL4A]	2.32 ± 0.083	2.54 ± 0.12	2.37 ± 0.07	2.26 ± 0.096
GSNNGFGNKPAGSTGFS [YGR119C/NUP57]	1.65 ± 0.076	1.24 ± 0.083	1.27 ± 0.15	2.22 ± 0.16
ANRDDVKGRENELLLPS [RPC82]	3.37 ± 0.14	–	3.6 ± 0.09	3.34 ± 0.084
QEPELSLDQGDAEEDSQ [SMC4]	3.45 ± 0.16	–	–	3.02 ± 0.14
TSDNLLTITKAAGANVD [RPP1B]	1.97 ± 0.066	2.13 ± 0.056	3.05 ± 0.08	2.26 ± 0.082

Sequence	protein stability index (doa10∆)	protein stability index (pdr5∆)	protein stability index (san1∆)	protein stability index (ubr1∆)
IFGGAGGVPTTSFGQPQ [YOR098C/NUP1]	1.57 ± 0.061	1.58 ± 0.074	1.55 ± 0.11	1.4 ± 0.053
KRKLDIGKDTFVTRKSR [PRP8]	2.93 ± 0.079	3.05 ± 0.057	2.91 ± 0.068	3.24 ± 0.043
ENKTKKDNDKNLKFLKN [SRB4]	3.42 ± 0.064	3.4 ± 0.079	3.28 ± 0.048	3.42 ± 0.057
DDSRNPDCKIKIAHGTT [PRE2]	2.63 ± 0.086	2.77 ± 0.067	2.72 ± 0.076	2.84 ± 0.078
SIRSRRPYQVNVLIGGY [PRE1]	2.34 ± 0.17	2.88 ± 0.09	1.71 ± 0.19	3.04 ± 0.1
IRDLEKLYDKTENDIKA [RPT4]	2.66 ± 0.18	2.6 ± 0.21	1.91 ± 0.22	2.43 ± 0.22
AQYEVLANYLTSALSEL [QCR2]	1.94 ± 0.05	2.18 ± 0.04	1.99 ± 0.067	1.68 ± 0.044
KDEEETEYFENKQSVSN [DSN1]	3.46 ± 0.12	3.4 ± 0.091	3.31 ± 0.085	3.53 ± 0.054
VAADGKLVTYIVKFKQK [YLR335W/NUP2]	2.17 ± 0.059	2.11 ± 0.054	2.09 ± 0.064	2.02 ± 0.05
DGAGGDNEVQRTMLELI [RPT1]	3.6 ± 0.16	2.95 ± 0.13	3.44 ± 0.11	3.36 ± 0.066
ALSLHREILCYSKDAKE [FAS2]	1.78 ± 0.028	1.76 ± 0.027	1.85 ± 0.044	1.82 ± 0.021
TEAVTQLIGSNIELHSL [PUP1]	3.29 ± 0.2	3.23 ± 0.12	3.44 ± 0.11	2.96 ± 0.13
NKEMHTDLGKDIPFFPS [SSN2]	2.34 ± 0.062	2.01 ± 0.066	2.52 ± 0.066	2.76 ± 0.055
TKEYLVQNLRSWETKLK [CSN9]	2.96 ± 0.099	3.33 ± 0.21	3.1 ± 0.092	2.93 ± 0.13
ILECDLLICIGTSLKVA [SIR2]	2.05 ± 0.081	1.59 ± 0.061	2.14 ± 0.15	1.73 ± 0.05
TNKLLFKRVSQTFEAKL [NUT1]	1.78 ± 0.048	1.7 ± 0.046	1.74 ± 0.087	1.83 ± 0.04
YQLNDRNVTKGDIVRML [SMC3]	2.72 ± 0.24	3.03 ± 0.17	2.84 ± 0.14	3.02 ± 0.11
PFREFLQVLIDQLDSEA [ECM29]	3.38 ± 0.095	2.6 ± 0.12	3.08 ± 0.089	3.01 ± 0.065
EEQRSDTKNSKSESPSE [ISW2]	–	3.21 ± 0.23	–	–
EELLAQYESQAPDGSAS [SWP82]	3.02 ± 0.061	2.95 ± 0.084	3.13 ± 0.068	3.08 ± 0.046
VKVKVSYQKLLKNYVLN [PRP8]	1.33 ± 0.043	1.36 ± 0.035	1.46 ± 0.062	1.63 ± 0.036
PRFNRDNKVSPAAAAKK [RPS26B]	2.41 ± 0.12	2.5 ± 0.21	2.61 ± 0.11	2.76 ± 0.12
ALALYVDAYRRLENKLS [SRP68]	1.78 ± 0.2	1.42 ± 0.11	–	1.52 ± 0.1
KKSVLKQVQDFEENDHP [COR1]	2.85 ± 0.084	2.81 ± 0.15	2.81 ± 0.098	2.66 ± 0.067
IMVLDASIGQAAEQQSK [SRP54]	–	2.78 ± 0.29	3.18 ± 0.1	2.97 ± 0.13
